Laboratory results taken from patent publication US20250042987A1 (BEIJING DONGFANG BIOTECH, published 2025).

T1: mouse TSLP-His (Sino Biological, product code 51005-M08H) (mouse, UniProt Q9JIE6 20-140)
T1 construct: Bought reagent; also called TSLP (Mouse); not shown: His tag
T1 sequence (looked up): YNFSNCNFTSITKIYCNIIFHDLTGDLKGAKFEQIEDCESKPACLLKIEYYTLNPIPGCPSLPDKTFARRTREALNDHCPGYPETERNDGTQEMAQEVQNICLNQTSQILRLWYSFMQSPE


These binders were tested against T1, mouse TSLP-His (Sino Biological, …) (assay: ELISA, mouse TSLP-His coated).
Description: It was washed with 300 μl/well PBST for five times, 1% BSA-PBST was added, and it was sealed at 37° C. for 1 h. […] It was washed with 300 μl/well PBST for five times, then Goat AntiHuman IgG-HRP diluted with 1% BSA-PBST 1:5000 was added and incubated at 37° C. for 1 h. A TMB color kit was used for color development at 100 μl/well, it was color-developed at the room temperature for 5 min, then terminated with 2 M H₂SO₄. An ELISA plate was read at 450 nm/630 nm, and the corresponding EC50 value was calculated.

Binder | binding result
humanized anti-TSLP monoclonal antibody HA-II (antibody, human IgG1, kappa, L234A L235A, V domains shown) VH: QVQLVQSGAEVKKPGASVKVSCKASGYTFTSYWMHWVRQAPGQGLEWIGLIDPSDSDTTYNQKFKGRATLTVDTSTSTAYMELSSLRSEDTAVYYCSRSLDGYFDHWGQGTLVTVSS VL: DIVMTQSPSSLSASVGDRVTITCRASENIYSYLAWYQQKPGKAPKLLVYNARTLAEGVPSRFSGSGSGTDFTLTISSLQPEDFATYYCQHHYGTPWTFGGGTKVEIKR | no binding (tested: 16 µg/ml (highest concentration))
humanized anti-TSLP monoclonal antibody HA-III (antibody, human IgG1, kappa, L234A L235A) heavy: not shown light: DIQMTQSPSSLSASVGDRVTITCRASENIYSYLAWYQQKPGKAPKLLVYNARTLAEGVPSRFSGSGSGTDFTLTISSLQPEDFATYYCQHHYGTPWTFGGGTKVEIKRTVAAPSVFIFPPSDEQLKSGTASVVCLLNNFYPREAKVQWKVDNALQSGNSQESVTEQDSKDSTYSLSSTLTLSKADYEKHKVYACEVTHQGLSSPVTKSFNRGEC | no binding (tested: 16 µg/ml (highest concentration))
humanized anti-TSLP monoclonal antibody HA-I (antibody, human IgG1, kappa, L234A L235A, V domains shown, also called HA-1; EB070) VH: QVQLVQSGAEVKKPGASVKVSCKASGYTFTSYWMHWVRQAPGQGLEWIGLIDPSDSDTTYNQKFKGRATLTVDTSTSTAYMELSSLRSEDTAVYYCSRSLDGYFDHWGQGTLVTVSS VL: DIVMTQSPSSLSASVGDRVTITCRASENIYSYLAWYQQKPGKSPKLLVYNARTLAEGVPSRFSGSGSGTDFTLTISSLQPEDFATYYCQHHYGTPWTFGGGTKVEIKR | no binding (tested: 16 µg/ml (highest concentration))
humanized anti-TSLP monoclonal antibody HA-IV (antibody, human IgG1, kappa, L234A L235A) heavy: not shown light: DIVMTQSPSSLSASVGDRVTITCRASENIYSYLAWYQQKPGKAPKLLVYNARTLAEGVPSRFSGSGSGTDFTLTISSLQPEDFATYYCQHHYGTPWTFGGGTKVEIKRTVAAPSVFIFPPSDEQLKSGTASVVCLLNNFYPREAKVQWKVDNALQSGNSQESVTEQDSKDSTYSLSSTLTLSKADYEKHKVYACEVTHQGLSSPVTKSFNRGEC | no binding (tested: 16 µg/ml (highest concentration))
